From patent publication US20250152663A1, “COMPOSITION FOR PREVENTION OR TREATMENT OF DRY EYE DISEASE COMPRISING HAPLN1” (HAPLNSCIENCE INC., priority 2021, published 2025)

Key:
[1] = test system: corneal epithelial cells; experiment: Detachment of corneal epithelial cells (H & E staining), mouse dry eye model; assay type: in vivo, C57BL/6; settings: after 16 days of drug treatment, regardless of concentration
Protocol: On the 2nd day after 16 days of drug treatment, eyes were enucleated and paraffin blocked, and tissue was stained by hematoxylin and eosin (H & E) staining on a prepared slide (FIG. 9A). The number of detached corneal epithelial cells was measured and quantified (FIG. 9B).

[2] = test system: goblet cells present in the conjunctiva; experiment: Goblet cells in conjunctiva (PAS staining), mouse dry eye model; assay type: in vivo, C57BL/6; settings: 16th day
From the text: On the 16th days from drug treatment, eyes were enucleated and paraffin blocked, and tissue was stained by PAS staining on a prepared slide (FIG. 10A). PAS staining specifically stains goblet cells. Because there are many mucopolysaccharides and mucoproteins in the goblet cells, […] thereof is oxidized by a periodic acid to form an aldehyde, which reacts with a Schiff reagent to be stained in red-purple.
In this regard, the number of goblet cells present in the conjunctiva was measured and quantified (FIG. 10B). As a result, in the dry eye disease model, the number of damaged goblet cells decreased.

[3] = test system: CCL-20 secreted by human corneal epithelial cells; experiment: CCL-20 ELISA under high osmotic pressure; assay type: cell-based; settings: HCEC, 450 mOsM, 5, 10, 20, 50, and 100 ng/ml
Protocol: (§1) In addition, the activity of NFκB that is an important transcription factor in expression of the inflammatory factors was identified by Western blot analysis (FIG. 4B). Preparation of the experiment was performed under the same conditions of those of Cytokine array performed as described above and the ELISA was performed according to the manufacturer's instructions.

[4] = test system: NFκB in human corneal epithelial cells; experiment: Western blot of NFκB activity under high osmotic pressure; assay type: cell-based; settings: HCEC, 450 mOsM
Protocol: as §1

[5] = test system: MUC5AC in human conjunctiva epithelial cells (HConEpiC); experiment: Anti-MUC5AC fluorescence staining under high osmotic pressure; assay type: cell-based
Protocol: First, human conjunctiva epithelial cells (HConEpiC) obtained after 4th passage of culture were seeded onto 24 wells and incubated for 24 hours, and then treated with high osmotic pressure of 450 mOsM simultaneously with the composition of the present disclosure having various concentrations (0, 5, 10, 20, 50, 100, and 200 ng/ml) of the HAPLN1 protein or Cyclosporine A (0.1 μM). After 72 hours of incubation, the cells were immobilized with 4% paraformaldehyde for 30 minutes and washed with a buffer. Subsequently, fluorescence staining was performed by using Anti-MUC5AC (DAPI labels the nuclei).

[6] = test system: IL-1β in lacrimal glands; experiment: IL-1β immunohistochemistry in lacrimal gland, mouse dry eye model; assay type: in vivo, C57BL/6; settings: 5 μg/ml or more of HAPLN1, after 16 days of drug treatment
Protocol: In this example, expression of IL-1B in lacrimal glands was identified by immunohistochemistry in order to identify an in vivo anti-inflammatory effect of the HAPLN1 protein-containing composition of the present disclosure. To this end, on the 2nd day after 16 days of drug treatment, eyes were enucleated and paraffin blocked. IHC was performed by using a prepared slide, and expression (brown) of IL-1β was identified by using an Anti-IL1β antibody (FIG. 11A). FIG. 11B is a graph illustrating quantified expression levels of IL-1β obtained in FIG. 11A.

[7] = test system: CD11 b in lacrimal glands; experiment: CD11 b immunofluorescence in lacrimal gland, mouse dry eye model; assay type: in vivo, C57BL/6; settings: after 16 days of drug treatment
Protocol: In this example, expression of CD11 b was identified in lacrimal glands in order to identify in vivo anti-inflammatory effect of the HAPLN1 protein-containing composition of the present disclosure. That is, on the 2nd day after 16 days of drug treatment, eyes were enucleated and paraffin blocked. IHC-IF was performed on a section slide, and expression (green) of CD11 b was identified by using an Anti-CD11 b antibody. FIG. 13B is a graph illustrating quantified expression levels of FIG. 13A (FIG. 13B).

B1: hyaluronan and proteoglycan link protein 1 (HAPLN1) (protein, listed as Homo sapiens)
chain: MKSLLLLVLISICWADHLSDNYTLDHDRAIHIQAENGPHLLVEAEQAKVFSHRGGNVTLPCKFYRDPTAFGSGIHKIRIKWTKLTSDYLKEVDVFVSMGYHKKTYGGYQGRVFLKGGSDSDASLVITDLTLEDYGRYKCEVIEGLEDDTVVVALDLQGVVFPYFPRLGRYNLNFHEAQQACLDQDAVIASFDQLYDAWRGGLDWCNAGWLSDGSVQYPITKPREPCGGQNTVPGVRNYGFWDKDKSRYDVFCFTSNFNGRFYYLIHPTKLTYDEAVQACLNDGAQIAKVGQIFAAWKILGYDRCDAGWLADGSVRYPISRPRRRCSPTEAAVRFVGFPDKKHKLYGVYCFRAYN
Question: How did the “number of damaged (detached) corneal epithelial cells” value [1] turn out when B1 was run?
Answer: decreased

Question: And the “number of goblet cells compared with normal Sham control” value [2]?
Answer: equivalent to that of the normal Sham control

Question: And the “number of goblet cells compared to the dry eye model” value ([2]; regardless of the concentration)?
Answer: significantly increased

Question: And the “expression levels of the inflammatory factor CCL20 (ELISA)” value [3]?
Answer: relatively lower than those of the HAPLN1 protein-untreated groups

Question: And the “phosphorylation of NFκB” value [4]?
Answer: reduced

Question: And the “numbers of cells secreting MUC5AC, compared with control” value ([5]; 450 mOsM, 10, 20, 50, 100, and 200 ng/ml, 72 hours)?
Answer: significantly greater than that of the normal control

Question: What about the “numbers of cells secreting MUC5AC, compared with Cyclosporine A” value ([5]; 450 mOsM, at some concentrations, vs Cyclosporine A 0.1 μM) of the same molecule?
Answer: greater than the case treated with Cyclosporine A

Question: What about the “expression of IL-1β in lacrimal gland” value [6] of the same molecule?
Answer: decreased to a level similar to that of Sham control

Question: And the “expression level of CD11 b compared with Cyclosporine A” value [7]?
Answer: reduced the expression level of CD11 b more than Cyclosporine A

Question: What about the “expression of CD11 b in lacrimal glands” value [7] of the same molecule?
Answer: decreased
